The nature of the series: self-splicing fitness, log relative to wild type (ln ratio); higher = more splicing; Tetrahymena group I intron in knt gene, E. coli kanamycin selection, DiMSum; sequences stand for … in CUCUCU…GGAGGGAAAAGUUAUCAGGCAUGCACCUGGUAGCUAGUCUUUAAACCAAUAGAUUGCAUCGGUUUAAAAGGCAAGACCGUCAAAUUGCGGGAAAGGGGUCAACAGCCGUUCAGUACCAAGUCUCAGGGGAAACUUUGAGAUGGCCUUGCAAAGGGUAUGGUAAUAAGCUGACGGACAUGGUCCUAACCACGCAGCCAAGUCCUAAGUCAACAGAUCUUCUGUUGAUAUGGAUGCAGUUCACAGACUAAAUGUCGGUCGGGGAAGAUGUAUUCUUCUCAUAAGAUAUAGUCGGACCUCUCCUUAAUGGGAGCUAGCGGAUGAAGUGAUGCAACACUGGAGCCGCUGGGAACUAAUUUGUAUGCGAAAGUAUAUUGAUUAGUUUUGGAGUACUCGUGGUCG
An outline of the steps:
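A randomised library covering all eight P1ex-region intron nucleotides was built with the intron in the knt kanamycin-resistance gene on pET-22b(+) and held in E. coli BL21(DE3). Cells were grown overnight at 37°C or 30°C on LB agar, with or without 25 μg/mL kanamycin, plus 100 μg/mL carbenicillin, 50 μM IPTG and 0.2% rhamnose, and pooled colonies were amplicon-sequenced on an Illumina HiSeq 2500. DiMSum fitness is the error-weighted combination of wild-type-normalised replicate fold changes, kanamycin versus none.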

± gives the uncertainty stated by the source.

With UGCGAGCAAUAUUACGAUGG, the “self-splicing fitness (ln)” value is -3.43 ± 0.2 (30 °C) and -1.93 ± 0.17 (37 °C).
As to UGGGAGCAAUAUUACGUCGG, the “self-splicing fitness (ln)” value (30 °C) is -0.491 ± 0.24.
GUUCAGCAAUAUUACGCGGA: the “self-splicing fitness (ln)” value by setting is: (30 °C) -4.19 ± 0.42; (37 °C) -2.54 ± 0.23.
With CCGCAGCAAUAUUACGGGGA, the “self-splicing fitness (ln)” value (30 °C) is -3.59 ± 0.15 and the “self-splicing fitness (ln)” value (37 °C) was -2.35 ± 0.15.
The matching figures for CCAGAGCAAUAUUACGUCAG: -2.58 ± 0.12 and -1.6 ± 0.15.
The matching figures for CUCAAGCAAUAUUACGGUAG: -2.03 ± 0.074 and -0.579 ± 0.08.
The matching figures for CAGUAGCAAUAUUACGCGAA: -4.22 ± 0.43 and -2.8 ± 0.31.
As for AGCUAGCAAUAUUACGGCGG, the “self-splicing fitness (ln)” value (30 °C) was -1.13 ± 0.12 and the “self-splicing fitness (ln)” value (37 °C) is -0.547 ± 0.14.
The matching figures for CCGCAGCAAUAUUACGAUGG: -4.91 ± 0.28 and -2.52 ± 0.2.
Consider CUUCAGCAAUAUUACGAGGG, for which the “self-splicing fitness (ln)” value was -3.48 ± 0.22 (30 °C) and -2.31 ± 0.22 (37 °C).
As to GGAUAGCAAUAUUACGCAUC, the “self-splicing fitness (ln)” value (37 °C) was -1.63 ± 0.38.
As to CUUUAGCAAUAUUACGCUUA, the “self-splicing fitness (ln)” value (30 °C) was -3.33 ± 0.37 and the “self-splicing fitness (ln)” value (37 °C) was -3.35 ± 0.4.
As to GAGAAGCAAUAUUACGCCGG, the “self-splicing fitness (ln)” value runs as follows: (30 °C) -2.05 ± 0.44; (37 °C) 0.0344 ± 0.4.
As to AUUUAGCAAUAUUACGAAGA, the “self-splicing fitness (ln)” value (30 °C) was -2.11 ± 0.4 and the “self-splicing fitness (ln)” value (37 °C) was -1.36 ± 0.34.
On to UCACAGCAAUAUUACGCAGA, for which the “self-splicing fitness (ln)” value was -2.54 ± 0.12 (30 °C) and -2.16 ± 0.14 (37 °C).
Consider AAAGAGCAAUAUUACGGUAC, for which the “self-splicing fitness (ln)” value was -4.14 ± 0.24 (30 °C) and -2.57 ± 0.2 (37 °C).
With CAUGAGCAAUAUUACGGAUG, the “self-splicing fitness (ln)” value was -3.02 ± 0.31 (30 °C) and -2.01 ± 0.26 (37 °C).
The matching figures for AGCAAGCAAUAUUACGUUUC: -4.44 ± 0.25 and -2.09 ± 0.15.
The matching figures for UCGAAGCAAUAUUACGCGGA: -3.61 ± 0.39 and -1.35 ± 0.17.
The matching figures for UUACAGCAAUAUUACGCAUA: -1.34 ± 0.091 and -0.527 ± 0.1.
As for CUCUAGCAAUAUUACGACAA, the “self-splicing fitness (ln)” value (37 °C) was -2.35 ± 0.28.
With GGGCAGCAAUAUUACGAGUU, the “self-splicing fitness (ln)” value was -2.81 ± 0.2 (30 °C) and -1.27 ± 0.22 (37 °C).
The matching figures for UAGAAGCAAUAUUACGGGAC: -3.1 ± 0.36 and -3.21 ± 0.47.
The matching figures for GACAAGCAAUAUUACGCAAG: -2.27 ± 0.091 and -1.75 ± 0.12.
For the sequence CAAGAGCAAUAUUACGUAUA, the “self-splicing fitness (ln)” value (30 °C) was -4.95 ± 0.3 and the “self-splicing fitness (ln)” value (37 °C) is -1.92 ± 0.15.
The matching figures for AAGUAGCAAUAUUACGAUGG: -3.03 ± 0.2 and -2.75 ± 0.33.
The matching figures for AAGAAGCAAUAUUACGACAU: -0.0917 ± 0.012 and -0.0361 ± 0.032.
The matching figures for CGAGAGCAAUAUUACGCACG: -3.55 ± 0.29 and -1.76 ± 0.3.
GUCAAGCAAUAUUACGCCUA: the “self-splicing fitness (ln)” value (30 °C) was -0.294 ± 0.12 and the “self-splicing fitness (ln)” value (37 °C) was determined as 0.0798 ± 0.093.
For the sequence UAUCAGCAAUAUUACGUGGU, the “self-splicing fitness (ln)” value is -3.97 ± 0.2 (30 °C) and -0.774 ± 0.13 (37 °C).
The matching figures for ACUCAGCAAUAUUACGAUGU: -1.35 ± 0.064 and -0.811 ± 0.074.
With AAAUAGCAAUAUUACGAAGC, the “self-splicing fitness (ln)” value (30 °C) is -3.18 ± 0.47.
Regarding AAAGAGCAAUAUUACGACGU, the “self-splicing fitness (ln)” value is -1.63 ± 0.084 (30 °C) and -0.555 ± 0.089 (37 °C).
For ACUCAGCAAUAUUACGGAAC, the “self-splicing fitness (ln)” value runs as follows: (30 °C) -1.64 ± 0.12; (37 °C) -1.76 ± 0.19.
The matching figures for GAUGAGCAAUAUUACGUGCG: -3.79 ± 0.17 and -1.8 ± 0.13.
On to ACUUAGCAAUAUUACGUUGC, for which the “self-splicing fitness (ln)” value is -3.9 ± 0.38 (30 °C) and -1.8 ± 0.26 (37 °C).
The matching figures for CACCAGCAAUAUUACGCAUC: -2.88 ± 0.13 and -3.35 ± 0.23.
Consider UUCUAGCAAUAUUACGAUUU, for which the “self-splicing fitness (ln)” value is -1.54 ± 0.16 (30 °C) and -1.33 ± 0.15 (37 °C).
The matching figures for UUCCAGCAAUAUUACGCAAG: -1.62 ± 0.07 and -0.644 ± 0.09.
For the sequence CGUCAGCAAUAUUACGCAGG, the “self-splicing fitness (ln)” value (30 °C) is -3.85 ± 0.3 and the “self-splicing fitness (ln)” value (37 °C) is -1.69 ± 0.18.
The matching figures for AGUCAGCAAUAUUACGGUUC: -2.98 ± 0.11 and -1.51 ± 0.11.
Consider GAUCAGCAAUAUUACGCGCU, for which the “self-splicing fitness (ln)” value by setting is: (30 °C) -1.86 ± 0.12; (37 °C) -0.35 ± 0.12.
The matching figures for GUACAGCAAUAUUACGCCGG: -3.87 ± 0.39 and -2.45 ± 0.24.
The matching figures for CGACAGCAAUAUUACGUCUG: -1.54 ± 0.083 and -0.38 ± 0.092.
On to AGAGAGCAAUAUUACGUAAG, for which the “self-splicing fitness (ln)” value is -3.25 ± 0.26 (30 °C) and -2.7 ± 0.36 (37 °C).
Consider UACUAGCAAUAUUACGCGGG, for which the “self-splicing fitness (ln)” value is -3.19 ± 0.22 (30 °C) and -1.75 ± 0.2 (37 °C).
Take GCGUAGCAAUAUUACGCUAA: the “self-splicing fitness (ln)” value reads like this: (30 °C) -3.9 ± 0.27; (37 °C) -2.25 ± 0.21.
The matching figures for AGUAAGCAAUAUUACGCUUU: -3.63 ± 0.26 and -2.36 ± 0.22.
On to GAUGAGCAAUAUUACGUUGU, for which the “self-splicing fitness (ln)” value (37 °C) is -1.69 ± 0.3.
As to ACCCAGCAAUAUUACGUAGU, the “self-splicing fitness (ln)” value (30 °C) amounted to 0.0959 ± 0.045 and the “self-splicing fitness (ln)” value (37 °C) worked out at 0.0745 ± 0.058.
The matching figures for CGGAAGCAAUAUUACGAUGG: -0.404 ± 0.096 and 0.233 ± 0.13.
For the sequence GUUUAGCAAUAUUACGAAAU, the “self-splicing fitness (ln)” value reads like this: (30 °C) -1.54 ± 0.11; (37 °C) -1.85 ± 0.19.
The matching figures for AUAGAGCAAUAUUACGUUGA: -1.89 ± 0.12 and -1.4 ± 0.12.
For the sequence AUUCAGCAAUAUUACGCUGA, the “self-splicing fitness (ln)” value (30 °C) is -3.06 ± 0.28 and the “self-splicing fitness (ln)” value (37 °C) is -2.6 ± 0.26.
The matching figures for CGCAAGCAAUAUUACGAUUC: -3.18 ± 0.18 and -2.17 ± 0.15.
The matching figures for UCAAAGCAAUAUUACGCCAC: -2.5 ± 0.24 and -2.07 ± 0.38.
For GCAGAGCAAUAUUACGCACA, the “self-splicing fitness (ln)” value (30 °C) was -2.09 ± 0.24.
CAUUAGCAAUAUUACGCUGG: the “self-splicing fitness (ln)” value runs as follows: (30 °C) -2.7 ± 0.13; (37 °C) -1.67 ± 0.14.
Consider UGCAAGCAAUAUUACGAAAC, for which, under “37 °C”, the “self-splicing fitness (ln)” value is -2.65 ± 0.36.
As to AAGCAGCAAUAUUACGAUGA, the “self-splicing fitness (ln)” value (30 °C) is -0.809 ± 0.078 and the “self-splicing fitness (ln)” value (37 °C) is -0.909 ± 0.083.
Take UUUAAGCAAUAUUACGGCUA: the “self-splicing fitness (ln)” value runs as follows: (30 °C) -0.342 ± 0.084; (37 °C) 0.291 ± 0.1.
The matching figures for AUCGAGCAAUAUUACGUUGA: -3.44 ± 0.27 and -2.94 ± 0.22.
As for UUUCAGCAAUAUUACGAAGG, the “self-splicing fitness (ln)” value runs as follows: (30 °C) -2.18 ± 0.15; (37 °C) -2.34 ± 0.28.
Take GCACAGCAAUAUUACGAGCC: the “self-splicing fitness (ln)” value is -3.2 ± 0.28 (30 °C) and -2.01 ± 0.23 (37 °C).
As for UGCCAGCAAUAUUACGGUCA, the “self-splicing fitness (ln)” value by setting is: (30 °C) -0.926 ± 0.081; (37 °C) -0.0439 ± 0.092.
The matching figures for GGGUAGCAAUAUUACGCCGU: -0.463 ± 0.2 and 0.576 ± 0.23.
Consider UAUCAGCAAUAUUACGUGGA, for which the “self-splicing fitness (ln)” value reads like this: (30 °C) -1.05 ± 0.098; (37 °C) -0.739 ± 0.099.
UAAUAGCAAUAUUACGGAUG: the “self-splicing fitness (ln)” value is -1.58 ± 0.08 (30 °C) and -0.737 ± 0.087 (37 °C).
Consider GGCUAGCAAUAUUACGCUUC, for which the “self-splicing fitness (ln)” value runs as follows: (30 °C) -2.51 ± 0.21; (37 °C) -1.61 ± 0.26.
Turning to UGCGAGCAAUAUUACGGAGG, where the note is “37 °C”, the “self-splicing fitness (ln)” value is -1.17 ± 0.18.
Turning to GGCCAGCAAUAUUACGUCCA, the “self-splicing fitness (ln)” value reads like this: (30 °C) -1.61 ± 0.17; (37 °C) -0.128 ± 0.15.
The matching figures for UGAUAGCAAUAUUACGGCGA: -0.745 ± 0.093 and -0.477 ± 0.13.
On to GCCCAGCAAUAUUACGCUCG, for which the “self-splicing fitness (ln)” value runs as follows: (30 °C) -3.45 ± 0.24; (37 °C) -2.34 ± 0.27.
The matching figures for CCUAAGCAAUAUUACGGACU: -3.46 ± 0.35 and -2.29 ± 0.36.
The matching figures for CUGUAGCAAUAUUACGUUUU: -4.23 ± 0.35 and -2.23 ± 0.19.
For ACUAAGCAAUAUUACGUGGA, the “self-splicing fitness (ln)” value (30 °C) was -2.99 ± 0.14 and the “self-splicing fitness (ln)” value (37 °C) is -1.49 ± 0.11.
Regarding AUGUAGCAAUAUUACGCUUG, the “self-splicing fitness (ln)” value runs as follows: (30 °C) -1.06 ± 0.14; (37 °C) -0.51 ± 0.15.

For the origin of these results see the supplement of paper PMC7877785.
